Tests used:
[1] = biological target: human NPR1 on HEK293/hNPR1.myc.DDK cells (0 hANP) (human) (UniProt P16066); assay: cell-based or functional assay
[2] = biological target: hNPR1-mFc:hANP or hNPR1-hFc:hANP complex (human) (UniProt P01160); assay: SPR, mAb captured, 25C
[3] = biological target: hNPR1-mFc:hBNP complex (human) (UniProt P16860); assay: SPR, mAb captured, 25C
mfNPR1-mFc (monkey) [4] = assay: SPR, mAb captured, 25C
[5] = biological target: mfNPR1-mFc:hANP complex (monkey; human) (UniProt P01160); assay: SPR, mAb captured, 25C
[6] = biological target: mfNPR1-mFc:hBNP complex (monkey; human) (UniProt P16860); assay: SPR, mAb captured, 25C
[7] = biological target: hNPR1-mFc:hANP or hNPR1-hFc:hANP complex (human) (UniProt P01160); assay: SPR, mAb captured, 37C
[8] = biological target: hNPR1-mFc:hBNP complex (human) (UniProt P16860); assay: SPR, mAb captured, 37C
mfNPR1-mFc (monkey) [9] = assay: SPR, mAb captured, 37C
[10] = biological target: mfNPR1-mFc:hANP complex (monkey; human) (UniProt P01160); assay: SPR, mAb captured, 37C
[11] = biological target: human NPR1 on HEK293/hNPR1.myc.DDK cells (0 hANP) (human) (UniProt P16066); assay: ECL cell binding (MSD), 0 hANP
mNPR1-mFc (mouse) [12] = assay: SPR Biacore, mAb captured by anti-human Fc, 25C
mNPR1-mFc (mouse), sequence (chain, as listed by the source limits assumed): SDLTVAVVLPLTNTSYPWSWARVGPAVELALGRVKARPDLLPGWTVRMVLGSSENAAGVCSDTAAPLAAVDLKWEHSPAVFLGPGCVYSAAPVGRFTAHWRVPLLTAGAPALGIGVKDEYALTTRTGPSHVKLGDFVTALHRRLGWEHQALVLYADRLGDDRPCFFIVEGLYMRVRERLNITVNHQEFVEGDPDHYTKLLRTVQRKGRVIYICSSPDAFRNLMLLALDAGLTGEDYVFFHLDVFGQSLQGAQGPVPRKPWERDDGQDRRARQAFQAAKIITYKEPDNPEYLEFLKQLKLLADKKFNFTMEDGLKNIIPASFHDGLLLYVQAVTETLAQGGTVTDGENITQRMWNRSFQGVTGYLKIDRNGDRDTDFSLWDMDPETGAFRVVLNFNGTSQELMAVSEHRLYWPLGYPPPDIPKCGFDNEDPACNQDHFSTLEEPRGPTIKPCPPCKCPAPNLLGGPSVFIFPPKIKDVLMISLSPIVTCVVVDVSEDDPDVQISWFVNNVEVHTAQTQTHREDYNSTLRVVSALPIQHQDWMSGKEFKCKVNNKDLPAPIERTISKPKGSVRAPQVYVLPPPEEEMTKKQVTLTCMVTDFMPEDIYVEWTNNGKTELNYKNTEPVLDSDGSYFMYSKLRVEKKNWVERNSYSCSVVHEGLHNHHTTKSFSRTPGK

[13] = biological target: mNPR1-mFc:hANP complex (mouse; human) (UniProt P01160); assay: SPR Biacore, mAb captured by anti-human Fc, 25C
[14] = biological target: mNPR1-mFc:hBNP complex (mouse; human) (UniProt P16860); assay: SPR Biacore, mAb captured by anti-human Fc, 25C
mNPR1-mFc (mouse) [15] = assay: SPR Biacore, mAb captured by anti-human Fc, 37C
[16] = biological target: mNPR1-mFc:hANP complex (mouse; human) (UniProt P01160); assay: SPR Biacore, mAb captured by anti-human Fc, 37C
[17] = biological target: mNPR1-mFc:hBNP complex (mouse; human) (UniProt P16860); assay: SPR Biacore, mAb captured by anti-human Fc, 37C
[18] = biological target: mfNPR1-mFc:hBNP complex (monkey; human) (UniProt P16860); assay: SPR Biacore, mAb captured by anti-human Fc, 37C

human NPR1 on HEK293/hNPR1.myc.DDK cells (0 hANP) (human), sequence (P16066 33-1061): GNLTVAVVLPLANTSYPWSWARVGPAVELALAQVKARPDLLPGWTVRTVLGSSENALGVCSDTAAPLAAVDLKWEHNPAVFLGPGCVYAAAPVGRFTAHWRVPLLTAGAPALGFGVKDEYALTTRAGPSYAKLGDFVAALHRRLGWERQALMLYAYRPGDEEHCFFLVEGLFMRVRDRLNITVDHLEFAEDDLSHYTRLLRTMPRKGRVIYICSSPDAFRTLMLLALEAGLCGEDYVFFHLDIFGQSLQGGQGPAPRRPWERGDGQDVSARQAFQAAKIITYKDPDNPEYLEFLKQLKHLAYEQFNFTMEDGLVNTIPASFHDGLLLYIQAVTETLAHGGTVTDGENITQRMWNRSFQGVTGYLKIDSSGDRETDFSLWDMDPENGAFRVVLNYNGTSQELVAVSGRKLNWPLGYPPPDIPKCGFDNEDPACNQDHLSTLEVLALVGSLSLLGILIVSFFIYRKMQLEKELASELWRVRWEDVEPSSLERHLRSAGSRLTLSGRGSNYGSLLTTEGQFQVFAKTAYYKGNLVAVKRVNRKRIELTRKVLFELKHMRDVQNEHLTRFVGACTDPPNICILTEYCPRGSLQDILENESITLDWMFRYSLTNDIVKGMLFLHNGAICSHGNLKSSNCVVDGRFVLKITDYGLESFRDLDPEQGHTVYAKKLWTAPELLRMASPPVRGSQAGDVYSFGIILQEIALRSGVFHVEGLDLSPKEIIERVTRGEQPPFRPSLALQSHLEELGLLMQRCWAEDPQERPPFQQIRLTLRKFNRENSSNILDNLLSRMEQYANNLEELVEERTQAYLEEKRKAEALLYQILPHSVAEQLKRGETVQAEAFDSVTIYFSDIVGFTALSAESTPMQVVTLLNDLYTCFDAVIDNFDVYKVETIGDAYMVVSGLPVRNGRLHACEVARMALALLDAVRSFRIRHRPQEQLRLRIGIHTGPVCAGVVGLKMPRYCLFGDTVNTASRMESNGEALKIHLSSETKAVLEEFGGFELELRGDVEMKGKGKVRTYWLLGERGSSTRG
mfNPR1-mFc (monkey), sequence (chain, as listed by the source limits assumed): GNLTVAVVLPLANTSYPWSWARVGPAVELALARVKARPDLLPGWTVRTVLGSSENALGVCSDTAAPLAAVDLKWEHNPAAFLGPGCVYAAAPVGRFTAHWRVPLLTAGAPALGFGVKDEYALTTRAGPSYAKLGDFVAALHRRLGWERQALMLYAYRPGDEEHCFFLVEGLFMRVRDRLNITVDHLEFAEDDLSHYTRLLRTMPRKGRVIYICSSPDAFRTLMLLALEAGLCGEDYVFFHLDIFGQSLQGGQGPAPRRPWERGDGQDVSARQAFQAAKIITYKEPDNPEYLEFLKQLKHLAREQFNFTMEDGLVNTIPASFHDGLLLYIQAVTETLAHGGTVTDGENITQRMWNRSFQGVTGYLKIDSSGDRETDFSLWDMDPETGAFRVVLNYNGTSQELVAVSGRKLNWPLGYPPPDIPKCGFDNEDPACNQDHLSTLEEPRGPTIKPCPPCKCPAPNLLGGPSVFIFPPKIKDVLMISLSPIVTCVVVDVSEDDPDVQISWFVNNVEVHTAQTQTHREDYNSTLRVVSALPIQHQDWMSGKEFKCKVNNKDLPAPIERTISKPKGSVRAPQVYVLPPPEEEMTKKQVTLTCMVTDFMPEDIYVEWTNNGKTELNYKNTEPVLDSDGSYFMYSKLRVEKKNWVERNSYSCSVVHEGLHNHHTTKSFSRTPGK

Row | Substance | EC50 (pM), ligand ANP, calcium flux activation, Expt II [1] | 100 nM Ag Bound (RU) [2] | 100 nM Ag Bound (RU) [3] | 100 nM Ag Bound (RU) (mfNPR1-mFc (monkey) [4]) | 100 nM Ag Bound (RU) [5] | 100 nM Ag Bound (RU) [6] | 100 nM Ag Bound (RU) [7] | 100 nM Ag Bound (RU) [8] | 100 nM Ag Bound (RU) (mfNPR1-mFc (monkey) [9]) | 100 nM Ag Bound (RU) [10] | % Activation (vs ANP max), Expt 1 [1] | % Activation (vs. ANP max), Expt II [1] | Ratio at 3.7 nM Ab concentration of Cell Binding Signal (RLU) to HEK293/hNPR1.myc.DKK relative to parental HEK293 [11] | 100 nM Ag Bound (RU) (mNPR1-mFc (mouse) [12]) | 100 nM Ag Bound (RU) [13] | 100 nM Ag Bound (RU) [14] | 100 nM Ag Bound (RU) (mNPR1-mFc (mouse) [15]) | 100 nM Ag Bound (RU) [16] | 100 nM Ag Bound (RU) [17] | 100 nM Ag Bound (RU) [18]
1 | ANP (from UniProt P01160 124-151) (ligand) | 78.8 pM |  |  |  |  |  |  |  |  |  |  |  |  |  |  |  |  |  |  | 
2 | IgG4 Isotype Control (antibody) |  | -12 RU | -11 RU | 5 RU | 7 RU | 7 RU | -18 RU | -17 RU | 8 RU | 9 RU | -6.03% | 1.9% | 1 | 0 RU | 1 RU | 2 RU | 2 RU | 2 RU | 3 RU | 9 RU
